In PMC2133087 (The Journal of Cell Biology, 1998):

Biological target: actin filament (F-actin) polymerized from G-actin purified from rabbit skeletal muscle (rabbit, UniProt P68135 1-377)
Assay: co-sedimentation

Binder | stoichiometry N
full-length His6-b-nexilin (natural protein) MNDVSQKAEILLSSSKPVPKSYVPKLGKGDVKDKFEAMQRAREERNQRRSRDEKQRRKEQYIREREWNRRKQEIKDMLASDEEEEPSKVEKAYVPKLTGTVKGKFDEMEKHRQEEQRKRTEEERKRRIEQDLLEKRKMQRELAKRAEQEGDDSLLITVVPAKSYRAAANRKDPEDLDREHRNGRVSQEEEKTRHEEECRALKEAKCLSLVMDDETEAKKESRFPGKLKSTFEELERQRQENRKKQAEEEARRRLEEERRAFEEARRNMVNEEDESQDTETVFKEYRPGKLRLSFEEIERQRREEEKRKAEEEARRRMEEEKKAFAEARRSMVLDDDSPEIYKAVSQESLTPGKLEINFEQLLRQKMEEERRRTEEERRQKLEMEKQEFEQLRQEMGKEEEENESFGLSREYEELIKLKRSGSIQAKNLKSKFEKIGQLSEKEVQKKIEEERAKRRAIDLEIKEREAENFHEDDDVDVKPAKKSESPFTHKVNMKARFEQMAKARQEEEQRRIEEQKLLRMQFEQKEIDAALQKKREDDEEEEGSIVNGSTTEDEEQTRSGAPWFKKPLRNTSVVDSEPVRFTVKVTGEPKPEVTWWFEGELLQDGEDYQYIERGETYCLYLPETFPEDGGEYMCKAVNSKGSAASTCILTIEMDDY | ~9 actin molecules per His6-b-nexilin molecule
full-length His6-s-nexilin (natural protein) MNDVSQKAEIKDMLASDEEEEPSKVEKAYVPKLTGTVKGKFDEMEKHRQEEQRKRTEEERKRRIEQDLLEKRKMQRELAKRAEQIEDINNTGTESASEEGDDSLLITVVPAKSYRAAANRKDPEDLDREHRNGRVSQEEEKTRHEEECRALKEAKCLSLVMDDETEAKKESRFPGKLKSTFEELERQRQENRKKQAEEEARRRLEEERRAFEEARRNMVNEEDESQDTETVFKEYRPGKLRLSFEEIERQRREEEKRKAEEEARRRMEEEKKAFAEARRSMVLDDDSPEIYKAVSQESLTPGKLEINFEQLLRQKMEEERRRTEEERRQKLEMEKQEFEQLRQEMGKEEEENESFGLSREYEELIKLKRSGSIQAKNLKSKFEKIGQLSEKEVQKKIEEERAKRRAIDLEIKEREAENFHEDDDVDVKPAKKSESPFTHKVNMKARFEQMAKARQEEEQRRIEEQKLLRMQFEQKEIDAALQKKREDDEEEEGSIVNGSTTEDEEQTRSGAPWFKKPLRNTSVVDSEPVRFTVKVTGEPKPEVTWWFEGELLQDGEDYQYIERGETYCLYLPETFPEDGGEYMCKAVNSKGSAASTCILTIEMDDY | ~10 actin molecules per His6-s-nexilin molecule
